Values belong to the binder of their own block, whether it stands above or below them.
Tests used:
[1] = molecular target: humanized development candidate monoclonal antibody IgG4 (hIgG4); test: Gyrolab, mAb as capture, hIgG4 40 ng/ml
[2] = molecular target: humanized development candidate monoclonal antibody IgG4 (hIgG4); test: Gyrolab, mAb as capture, hIgG4 200 ng/ml
[3] = molecular target: humanized development candidate monoclonal antibody IgG4 (hIgG4); test: Gyrolab, mAb as capture, hIgG4 1000 ng/ml
[4] = molecular target: cynomolgus monkey IgG (cynoIgG); test: direct ELISA, cynoIgG coated (hIgG4/CynoIgG screen), B-cell culture medium
[5] = molecular target: humanized development candidate monoclonal antibody IgG4 (hIgG4); test: Gyrolab, mAb as capture, hIgG4 1.6 ng/ml
[6] = molecular target: humanized therapeutic monoclonal antibody IgG1 (hIgG1); test: direct ELISA, hIgG1 coated, B-cell culture medium
[7] = molecular target: humanized development candidate monoclonal antibody IgG4 (hIgG4); test: Gyrolab, mAb as capture, hIgG4 0.32 ng/ml
[8] = molecular target: humanized development candidate monoclonal antibody IgG4 (hIgG4); test: Gyrolab, mAb as capture, hIgG4 8 ng/ml
[9] = molecular target: humanized development candidate monoclonal antibody IgG4 (hIgG4); test: Gyrolab, mAb as capture, hIgG4 5000 ng/ml
[10] = molecular target: cynomolgus monkey IgG (cynoIgG); test: direct ELISA, cynoIgG coated (hIgG1/CynoIgG screen), B-cell culture medium
[11] = molecular target: humanized development candidate monoclonal antibody IgG4 (hIgG4); test: direct ELISA, hIgG4 coated, B-cell culture medium
[12] = molecular target: internal research reagent human Fab (hFab); test: SPR (Biacore T200), mAb captured by anti-rabbit mAb on CM5, antigen 80-0 nM, 1:1 fit
[13] = molecular target: humanized therapeutic monoclonal antibody IgG1 (hIgG1); test: as above
[14] = molecular target: humanized development candidate monoclonal antibody IgG4 (hIgG4); test: as above
[15] = molecular target: drug: a monoclonal antibody of human IgG4 isotype (PandA assay); test: PandA assay (PEG precipitation, acid dissociation, MSD plate, sulfo-TAG-drug), mAb 5 ug/ml in monkey plasma
[16] = molecular target: drug: a monoclonal antibody of human IgG4 isotype (PandA assay); test: PandA assay, monkey matrix, mAb 0.75 ug/ml
[17] = molecular target: drug: a monoclonal antibody of human IgG4 isotype (PandA assay); test: PandA assay, monkey matrix, mAb 0.5 ug/ml
[18] = molecular target: humanized development candidate monoclonal antibody IgG4 (hIgG4); test: Gyrolab, mAb as capture, hIgG4 1.6 ng/ml, against the blank
[19] = molecular target: humanized development candidate monoclonal antibody IgG4 (hIgG4); test: Gyrolab, mAb as capture, hIgG4 40 ng/ml, against the blank
[20] = molecular target: drug: a monoclonal antibody of human IgG4 isotype (PandA assay); test: PandA assay, mAb 0.75 ug/ml in monkey plasma
[21] = molecular target: drug: a monoclonal antibody of human IgG4 isotype (PandA assay); test: PandA assay, mAb 0.5 ug/ml in monkey plasma
[22] = molecular target: drug: a monoclonal antibody of human IgG4 isotype (PandA assay); test: PandA assay, signal to noise against the negative control
[23] = molecular target: humanized development candidate monoclonal antibody IgG4 (hIgG4); test: Gyrolab, mAb as capture, hIgG4 200 ng/ml, against the blank
[24] = molecular target: drug: a monoclonal antibody of human IgG4 isotype (PandA assay); test: PandA assay, monkey matrix, mAb 1 ug/ml
[25] = molecular target: humanized development candidate monoclonal antibody IgG4 (hIgG4); test: Gyrolab, mAb as capture, hIgG4 5000 ng/ml, against the blank
[26] = molecular target: humanized development candidate monoclonal antibody IgG4 (hIgG4); test: Gyrolab, mAb as capture, hIgG4 1000 ng/ml, against the blank
[27] = molecular target: humanized development candidate monoclonal antibody IgG4 (hIgG4); test: ELISA, medium of transfected HEK293F; signal on hIgG4 over signal on cynoIgG
[28] = molecular target: humanized development candidate monoclonal antibody IgG4 (hIgG4); test: Gyrolab, mAb as capture, hIgG4 0.32 ng/ml, against the blank
[29] = molecular target: drug: a monoclonal antibody of human IgG4 isotype (PandA assay); test: PandA assay, mAb 1 ug/ml in monkey plasma
[30] = molecular target: drug: a monoclonal antibody of human IgG4 isotype (PandA assay); test: PandA assay, monkey matrix, mAb 5 ug/ml
[31] = molecular target: humanized therapeutic monoclonal antibody IgG1 (hIgG1); test: ELISA, medium of transfected HEK293F; signal on hIgG1 over signal on cynoIgG
[32] = molecular target: humanized development candidate monoclonal antibody IgG4 (hIgG4); test: Gyrolab, mAb as capture, hIgG4 8 ng/ml, against the blank
[33] = molecular target: humanized development candidate monoclonal antibody IgG4 (hIgG4); test: Gyrolab immunoassay quality control, biotinylated 16F5 as capture, hIgG4 in matrix with 4% cynomolgus monkey serum, Alexa Fluor 647 goat anti-human IgG detection

B2: rabbit anti-human IgG monoclonal antibody clone 19B1 (antibody, V domains shown)
VH: QEQLVESGGGLVQPEGSLTLTCTASGFSFSDSYYMCWVRQAPGKGLEWIACIYGGTITNTYYASWAKGRFTISKTSSTTVTLQMTSLTAADTATYFCARDLGAAGDAYNLWGPGTLVTVSS
VL: ASDMTQTPASVSEPVGGTVTIKCQASENIYSSLAWYQQKPGQPPKLLIYDASNLASGVPSRFSGSGSGTEFTLTISDLECADAATYYCQCTYRSSSSSYAFGGGTEVVVKG
- Av. Resp. [1]: 22.8
- Av. Resp. [2]: 82.9
- Av. Resp. [3]: 203
- OD450 [4]: 0.102 OD450
- Av. Resp. [5]: 2.7
- OD450 [6]: 1.15 OD450
- Av. Resp. [7]: 1.8
- Av. Resp. [8]: 6.2
- Av. Resp. [9]: 246
- OD450 [10]: 0.055 OD450
- OD450 [11]: 0.954 OD450
- Kd [12]: 0.54 nM
- Kd [13]: 0.239 nM
- Kd [14]: 0.067 nM

B4: rabbit anti-human IgG monoclonal antibody clone 9E6 (antibody, V domains shown)
VH: QSLEESGGDLVKPGASLTLTCKASGFDFSSSYYMCWVRQAPGRLEWIACIYGGGLSNTYYAGWAKGRFTISKTSSTTVTLQMTSLTVADTATYFCARDAGTSGDYLNLWGPGTLVTVSS
VL: AVVMTQTASPVSGAVGGTVTINCQASQSISSSYLSWYQQKPGQPPKLLIYGASTLASGVPSRFKGSGSGTQFTLTISGVQCDDAATYYCAYDAYRLSSPDNIFGGGTEVVVKG
- Av. Resp. [1]: 28.4
- Av. Resp. [2]: 103
- Av. Resp. [3]: 256
- OD450 [4]: 0.146 OD450
- S/B [18]: 1.4
- Av. Resp. [5]: 4.1
- OD450 [6]: 1.28 OD450
- S/B [19]: 9.8
- Av. Resp. [7]: 3
- Av. Resp. [8]: 8.6
- S/B [23]: 35.5
- Av. Resp. [9]: 327
- OD450 [10]: 0.14 OD450
- S/B [25]: 113
- OD450 [11]: 1.28 OD450
- S/B [26]: 88.2
- ELISA signal ratio hIgG4/CynoIgG [27]: 9.53
- S/B [28]: 1.1
- ELISA signal ratio hIgG1/CynoIgG [31]: 10.2
- Kd [12]: 0.518 nM
- koff [12]: 0.00603 s⁻¹
- kon [12]: 1.16e+07 M⁻¹ s⁻¹
- Kd [13]: 0.426 nM
- koff [13]: 6.1e-05 s⁻¹
- kon [13]: 143000 M⁻¹ s⁻¹
- Kd [14]: 0.196 nM
- koff [14]: 2.68e-05 s⁻¹
- kon [14]: 137000 M⁻¹ s⁻¹
- S/B [32]: 3

B5: rabbit anti-human IgG monoclonal antibody clone 16F5 (antibody, V domains shown)
VH: QQQLEESGGGLVKPGGTLTLTCKASGIDFSNYYYMCWVRQAPGKGLELIACIYTGSSGSTWYATWAKGRFTISKTSSTTVTLQMTSLTAADTATYFCARDRDVGSLYDSLDLWGQGTLVTVSP
VL: AYDMTQTPASVEAAVGGTVTINCQASQSINNWLSWYQQKPGQRPKLLIYQASTLASGVSSRFKGSGSGTHFTLTISDLECADAATYYCQQGWSIDDIDNAFGGGTEVVVKG
- Av. Resp. [1]: 64.2
- Av. Resp. [2]: 197
- Av. Resp. [3]: 369
- OD450 [4]: 0.154 OD450
- S/B [18]: 1.8
- Av. Resp. [5]: 7
- OD450 [6]: 1.39 OD450
- S/B [19]: 16.4
- Av. Resp. [7]: 4.4
- Av. Resp. [8]: 18.5
- S/B [23]: 50.5
- Av. Resp. [9]: 385
- OD450 [10]: 0.184 OD450
- S/B [25]: 98.6
- OD450 [11]: 1.37 OD450
- S/B [26]: 94.4
- Average Response (HQC, expected conc 750 ng/mL) [33]: 414
- Average Response (LQC, expected conc 40.0 ng/mL) [33]: 70.3
- Average Response (MQC, expected conc 0.600 ng/mL) [33]: 5.85
- Response (HQC, expected conc 750 ng/mL, CD struct C1) [33]: 400
- Response (HQC, expected conc 750 ng/mL, CD struct C2) [33]: 427
- Response (LQC, expected conc 40.0 ng/mL, CD struct C3) [33]: 68.6
- Response (LQC, expected conc 40.0 ng/mL, CD struct C4) [33]: 72
- Response (MQC, expected conc 0.600 ng/mL, CD struct C5) [33]: 5.88
- Response (MQC, expected conc 0.600 ng/mL, CD struct C6) [33]: 5.83
- S/B (HQC, expected conc 750 ng/mL, CD struct C1) [33]: 87.7
- S/B (HQC, expected conc 750 ng/mL, CD struct C2) [33]: 93.6
- S/B (LQC, expected conc 40.0 ng/mL, CD struct C3) [33]: 15
- S/B (LQC, expected conc 40.0 ng/mL, CD struct C4) [33]: 15.8
- S/B (MQC, expected conc 0.600 ng/mL, CD struct C5) [33]: 1.29
- S/B (MQC, expected conc 0.600 ng/mL, CD struct C6) [33]: 1.28
- ELISA signal ratio hIgG4/CynoIgG [27]: 6.33
- S/B [28]: 1.1
- ELISA signal ratio hIgG1/CynoIgG [31]: 5.9
- Kd [12]: 1.93 nM
- koff [12]: 0.00584 s⁻¹
- kon [12]: 3.02e+06 M⁻¹ s⁻¹
- Kd [13]: 0.127 nM
- koff [13]: 2.21e-05 s⁻¹
- kon [13]: 173000 M⁻¹ s⁻¹
- Kd [14]: 0.514 nM
- koff [14]: 8.09e-05 s⁻¹
- kon [14]: 157000 M⁻¹ s⁻¹
- S/B [32]: 4.7

Now from value to binder:

- Av. Resp. [1]: 45.1
- Av. Resp. [2]: 148
- Av. Resp. [3]: 289
- OD450 [4]: 0.092 OD450
- Av. Resp. [5]: 5
- OD450 [6]: 1.11 OD450
- Av. Resp. [7]: 3.1
- Av. Resp. [8]: 12.8
- Av. Resp. [9]: 330
- OD450 [10]: 0.089 OD450
- OD450 [11]: 0.91 OD450
- Kd [12]: 1.12 nM
- Kd [13]: 0.619 nM
- Kd [14]: 0.279 nM
B1: rabbit anti-human IgG monoclonal antibody clone 11F9 (antibody, V domains shown)
VH: QQQLEESGGGLVQPEGSLTLTCIASGFSFSSSHWICWVRQAPGKGLEWIACMSTSSGSTYDANWAKGRFTISKTSSTTVTLQMTSLTAADTATYFCARDVGGSTTYFDLWGPGTLVTVSS
VL: AYDMTQTPASVSEPVGGTVTIKCQASQSISNELSWYQQKPGQPPKLLIYRASTLASGVPSRFKGSGSGTQFTLTINGVECADAATYYCQQGYSISNVDNTFGGGTEVVVKG

- ECL Signal [15]: 1550
- S/N (monkey) [16]: 1.92
- Av. Resp. [1]: 60.9
- Av. Resp. [2]: 184
- Av. Resp. [3]: 394
- OD450 [4]: 0.159 OD450
- S/N (monkey) [17]: 1.58
- S/B [18]: 1.3
- Av. Resp. [5]: 9.8
- OD450 [6]: 1.25 OD450
- S/B [19]: 8.2
- ECL Signal [20]: 257
- ECL Signal [21]: 171
- Av. Resp. [7]: 7.5
- S/N [22]: 1.8
- Av. Resp. [8]: 20.3
- S/B [23]: 24.8
- Av. Resp. [9]: 468
- OD450 [10]: 0.161 OD450
- S/N (monkey) [24]: 2.4
- S/B [25]: 63.3
- OD450 [11]: 1.32 OD450
- S/B [26]: 53.1
- ELISA signal ratio hIgG4/CynoIgG [27]: 5.19
- S/B [28]: 1
- ECL Signal [29]: 320
- S/N (monkey) [30]: 9.76
- ELISA signal ratio hIgG1/CynoIgG [31]: 4.94
- Kd [12]: 0.591 nM
- koff [12]: 0.000531 s⁻¹
- kon [12]: 899000 M⁻¹ s⁻¹
- Kd [13]: 0.187 nM
- koff [13]: 2.52e-05 s⁻¹
- kon [13]: 135000 M⁻¹ s⁻¹
- Kd [14]: 0.0429 nM
- koff [14]: 5.8e-06 s⁻¹
- kon [14]: 135000 M⁻¹ s⁻¹
- S/B [32]: 2.7
B3: rabbit anti-human IgG monoclonal antibody clone 11G5 (antibody, V domains shown)
VH: QSLEESGGDLVKPGASLTLTCTASGFSFSSSYYMCWVRQAPGKRLEWIACIYGGGLSNTYYAGWAKGRFTISKTSSTTVTLQMTSLTAADTATYFCARDATSGDYLNLWGPGTLVTVSS
VL: AVVMTQTASPVSGAVGGTVTINCQASQSISASALSWYQQKPGQPPKLLIYAASTLESGVPSRFKGSGSGTQFTLTISGVQCDDAATYYCAYDGYRLSSADNIFGGGTEVVVKG

From patent US20250237662A1
